Source: publication PMC6778226 (Proceedings of the National Academy of Sciences of the …, 2019)
Like-named read-outs stand apart in the source and are kept apart here.

Columns and labels:
[1] = biological target: T1, voltage-dependent anion channel 1 (human, UniProt P21796 1-283, amine reactive RED-NHS NT-647 dye (for MST)); test: MST
[2] = biological target: T1, voltage-dependent anion channel 1; test: MST; remark: listed apart in the source

T1 sequence (P21796 whole entry): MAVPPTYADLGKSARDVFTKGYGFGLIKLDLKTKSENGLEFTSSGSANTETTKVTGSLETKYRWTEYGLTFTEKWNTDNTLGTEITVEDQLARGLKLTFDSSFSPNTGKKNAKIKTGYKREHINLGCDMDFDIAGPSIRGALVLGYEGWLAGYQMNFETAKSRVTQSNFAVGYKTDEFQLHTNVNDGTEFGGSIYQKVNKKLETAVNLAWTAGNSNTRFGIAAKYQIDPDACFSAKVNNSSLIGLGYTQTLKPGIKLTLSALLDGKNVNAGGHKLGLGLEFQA

- Kd [1]: 210 ± 15 nM
- Kd [2]: 76 ± 2 nM
B1: mitoNEET (natural protein, human)
chain: RFYVKDHRNKAMINLHIQKDNPKIVHAFDMEDLGDKAVYCRCWRSKKFPFCDGAHTKHNEETGDNVGPLIIKKKET
